Positions count from the first letter of the chain named. Values belong to the binder of their own block, whether it stands above or below them.
Tests used:
[1] = molecular target: T1, human 4-1BB expressed on cells (human, UniProt Q07011 24-255); assay: cell-based or functional assay
[2] = molecular target: T1, human 4-1BB expressed on cells; assay: FACS on anti-CD3-activated human CD8+ T cells, antibody at 25 ng/ml
Experimental: CD8⁺ T cells were isolated from human PBMCs and activated with 1 μg/ml anti-CD3 antibody for 2 day. The ability of exemplary humanized anti-human 4-1BB antibodies (94K, 94 KV, 94KVT and EU101) described in Example 1 to detect a 4-1BB on the surface of activated […] T cells was assessed relative to an exemplary commercially available anti-4-1BB antibody (4-1BB-PE). Also shown is detection with a BBK-4 a murine anti-human 4-1BB antibody and a 94G1 reference humanized antibody. Treatment with 4-1BB antibodies was at a concentration of 25 ng/ml.
Exemplary antibodies were detected with an anti-mIgG-Dylight488 or anti-hIgG-Dylight488 as appropriate, and analyzed by FACS.

[3] = molecular target: T2, human 4-1BB antigen (H4-1BB) (human, UniProt Q07011 24-186, limits assumed); assay: ELISA of Fab in E. coli supernatant, binding divided by expression level; data not shown
Experimental: ELISA was performed the following day on a supernatant obtained by centrifugation at 12,000 rpm for 10 minutes at 4° C.
A Fab antibody prepared by substituting the constant heavy chain of pCOM-Fab94G1-L with the heavy chain of the backbone 94G1 on the improved 94G1 light chain was called 94/w. Thus, a 94/w variant includes an improved 94G1 light chain in which the 6th amino acid of LCDR3 is substituted with tryptophan (W) ([…]—SEQ ID NO: 4) and a 94G1 heavy chain. IPTG-induced expression in E. coli and ELISA of a 94/w Fab was used to determine binding affinity as described above. Using this method, it was determined that a 94/w Fab antibody has a binding activity 3.5 times higher than that of 94G1 (Fab antibody) (data not shown).

[4] = molecular target: T3, GST-4-1BB ECD fragment R2 fusion polypeptide (human, UniProt Q07011 76-130); assay: western blot on GST fusion polypeptides
T3 construct: not shown: GST carrier at the N end (pGEX-6T, 27 kDa) and the vector-derived junction residues
Experimental: Purified protein samples were obtained from transformed bacterial cells by a lysis buffer (e.g., 10 mM Tris-HCl—pH 7.4, 50 mM NaCl, 5 mM EDTA, 30 mM NaF, 0.1 mM Na3VO4, 1% Triton X-100, 0.5% Nonidet P-40, 1 mM PMSF, and protease inhibitor mixture). Approximately 20 μg of each fusion polypeptide sample was diluted in a 4×SDS sample buffer, subjected to electrophoresis on SDS-PAGE gels, and then transferred to nitrocellulose membranes (Millipore, Bedford, Mass.). On the cellulose membranes, anti-human 4-1BB mAb was reacted with anti-mouse IgG horseradish […] (HRP). Binding antibodies were recognized by enhanced chemiluminescence (ECL) (Amersham Pharmacia Biotech, Little Chalfont, UK).
As described above and shown in FIG. 1B, when each of three non-overlapping H4-1BB ECD fragment-GST fusion polypeptides, R1, R2, and R3, were treated with GST-binding, respectively. It was determined that an exemplary humanized anti-4-1BB antibody encompassed by the present disclosure (EU101) binds to an N-terminal fragment construct (R1) fusion construct of approximately 32 kDa (amino acids 1 to 55 of 4-1BB) by western blotting.

[5] = molecular target: T4, GST-4-1BB ECD fragment R1.1 fusion polypeptide (human, UniProt Q07011 21-65); assay: western blot on E. coli whole cell extracts (FIG. 2B)
T4 construct: not shown: GST carrier at the N end (pGEX-6T, 27 kDa) and the vector-derived junction residues
T4 chain: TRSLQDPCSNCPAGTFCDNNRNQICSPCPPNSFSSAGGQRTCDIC
Experimental: (§1) FIG. 2A depicts an SDS-PAGE gel of whole cell extracts from cells expressing 4-1BB ECD fusion constructs. Fusion constructs as described above in FIG. 2A were expressed in E. coli BL21 cells induced with 1 mM IPTG, and whole cell extracts resolved by 12% SDS-PAGE. As shown, all fusion constructs (ECD, R1, R1.1, R1.2, R1.3, R1.4, R1.5, and R1.6) have robust protein expression. FIG. 2B depicts a western blot showing binding of an exemplary humanized anti-4-1BB antibody to full length 4-1BB ECD fusion polypeptide, and R1.1, R1.2, R1.3, and R1.6 fusion polypeptides, but not to the R1.4 or R1.5 fusion polypeptides. Immunoblots were performed with an exemplary anti-human 4-1BB antibody. Molecular size markers are indicated in kDa on the left.
(§2) SDS-PAGE was transferred to a nitrocellulose membrane and immunoblotting was performed using an exemplary anti-human 4-1BB antibody, EU101. […] It was also confirmed that a sequence including amino acids 35 to 50 of the 4-1BB extracellular domain is […] for binding an exemplary humanized antibody described herein (FIG. 2B).

[6] = molecular target: T5, GST-4-1BB ECD fragment R1.2 fusion polypeptide (human); assay: as above
T5 construct: not shown: GST carrier at the N end (pGEX-6T, 27 kDa) and the vector-derived junction residues
T5 chain: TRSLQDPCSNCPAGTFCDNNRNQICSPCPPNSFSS
Experimental: as §1, §2

[7] = molecular target: T6, GST-4-1BB ECD fragment R1.3 fusion polypeptide (human, UniProt Q07011 31-75); assay: as above
T6 construct: not shown: GST carrier at the N end (pGEX-6T, 27 kDa) and the vector-derived junction residues
T6 chain: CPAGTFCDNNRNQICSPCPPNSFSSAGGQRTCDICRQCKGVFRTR
Experimental: as §1, §2

[8] = molecular target: T7, GST-4-1BB ECD fragment R1.6 fusion polypeptide (human, N-terminal GST fusion, not written); assay: as above
T7 construct: not shown: GST carrier at the N end (27 kDa, pGEX-6T) and the vector-derived residues at the BamHI/XhoI junctions
T7 chain: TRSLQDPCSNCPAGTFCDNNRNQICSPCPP
Experimental: as §1, §2

[9] = molecular target: T8, GST-4-1BB ECD fragment R1.4 fusion polypeptide (human); assay: western blot on E. coli whole cell extracts with GST fusion polypeptides
T8 construct: not shown: GST carrier at the N end (pGEX-6T, 27 kDa) and the vector-derived junction residues
T8 chain: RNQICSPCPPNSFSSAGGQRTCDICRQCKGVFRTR
Experimental: as §1, §2

[10] = molecular target: T2, human 4-1BB antigen (H4-1BB); assay: SPR (Biacore 3000, CM5 chip), antibody captured on immobilized anti-human IgG, human 4-1BB antigen (H4-1BB) flowed over
Source text: In vitro binding affinity of exemplary engineered antibody EU101 as described in Example 1, along with that of a reference 94G1 humanized antibody were each determined by Biacore analysis. Anti-human IgG was immobilized on a CM5 chip, and coupled to the Fab antibodies prepared above by flowing over the chip, and ultimately reacted with a human 4-1BB antigen (H4-1BB) to measure the binding activity between the antibody and the antigen (Biacore3000, sensor chip CM5). Ka (1/Ms) and Kd (1/s) values represent how fast an antibody associates with and dissociates from an antigen, respectively. A dissociation constant (KD) is obtain by dividing Kd by Ka (Kd/Ka=[…]).

T1 sequence (Q07011 24-255 limits assumed): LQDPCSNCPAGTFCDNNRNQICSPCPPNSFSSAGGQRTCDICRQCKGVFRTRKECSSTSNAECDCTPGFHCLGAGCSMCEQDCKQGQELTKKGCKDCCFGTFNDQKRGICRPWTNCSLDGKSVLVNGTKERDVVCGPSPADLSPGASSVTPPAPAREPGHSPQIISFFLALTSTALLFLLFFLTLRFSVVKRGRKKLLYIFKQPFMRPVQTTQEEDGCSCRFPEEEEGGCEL

IFNgamma secretion by anti-CD3-treated CD8+ T cells, 1.0 ug/ml antibody, day 5, against the control group [1]: 13 fold
percent of CD8+ T cells on which 4-1BB was detected [2]: 25.3%
B1: 94KVT (full length 94KVT/w antibody) (antibody, human IgG1)
heavy: not shown
VL: DIVMTQSPAFLSVTPGEKVTITCRASQTISDYLHWYQQKPDQAPKLLIKYASQSISGIPSRFSGSGSGTDFTFTISSLEAEDAATYYCQDGHSWPPTFGQGTKLEIK
notes: Full length IgG1

binding activity as fold of 94G1 (Fab antibody) [3]: 3.5 fold
B2: 94/w Fab antibody (Fab, V domains shown)
VH: QVQLQQSGAEVKKPGASVKLSCKASGYTFSSYWMHWVRQAPGQGLEWIGEINPGNGHTNYNEKFKSRATMTRDTSTSTAYMELSSLRSEDSAVYYCARSFTTARAFAYWGQGTLVTVSS
VL: B1 VL
notes: Fab expressed in E. coli TG1 from a pComb3H-derived vector and tested as culture supernatant; also called 941w

IFNgamma secretion by anti-CD3-treated CD8+ T cells, 1.0 ug/ml antibody, day 5, against the control group [1]: 13 fold
binding result [4]: no binding
binding result [5]: binds
binding result [6]: binds
binding result [7]: binds
binding result [8]: binds
percent of CD8+ T cells on which 4-1BB was detected [2]: 28.3%
binding result [9]: no binding
Kd [10]: 0.0636 nM
koff [10]: 1.8e-05 s⁻¹
B3: EU101 (antibody, human IgG1, L234A L235A)
heavy: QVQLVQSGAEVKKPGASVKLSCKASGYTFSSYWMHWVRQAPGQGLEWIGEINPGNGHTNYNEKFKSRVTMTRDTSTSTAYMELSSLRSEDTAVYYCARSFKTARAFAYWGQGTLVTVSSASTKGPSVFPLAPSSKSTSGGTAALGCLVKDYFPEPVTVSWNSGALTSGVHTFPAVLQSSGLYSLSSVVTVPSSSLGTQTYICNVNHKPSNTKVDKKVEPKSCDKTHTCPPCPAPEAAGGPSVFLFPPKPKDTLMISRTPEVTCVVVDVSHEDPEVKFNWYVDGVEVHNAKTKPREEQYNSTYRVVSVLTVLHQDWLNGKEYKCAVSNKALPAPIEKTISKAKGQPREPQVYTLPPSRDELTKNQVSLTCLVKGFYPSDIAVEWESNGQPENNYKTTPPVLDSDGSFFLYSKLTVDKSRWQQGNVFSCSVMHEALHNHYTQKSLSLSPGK
VL: B1 VL
notes: Full length antibody with the 94KVT/w variable domains and a variant IgG1 constant domain; The light chain constant domain is not tied to EU101; also called exemplary humanized anti-4-1BB antibody; exemplary anti-human 4-1BB antibody (EU101)

percent of CD8+ T cells on which 4-1BB was detected [2]: 17.9%
Kd [10]: 0.602 nM
koff [10]: 0.000118 s⁻¹
B4: 94G1 reference humanized anti-human 4-1BB antibody (antibody, V domains shown)
VH: B2 VH
VL: B1 VL with W94F

Reference: patent publication US20200172626A1 (EUTILEX, published 2020)
